Reference: patent publication US20250011410A1 (INVETX, published 2025)
Several values for one entry are separate records, joined by “and”; a condition that tells them apart may be missing. Equal entries are not always repeated.

B1: canine NGF tagged at the C-terminus with the Flag tag (ligand)
chain: SSSHPVFHRGEFSVCDSVSVWVGDKTTATDIKGKEVMVLGEVNINNSVFKQYFFETKCRDPTPVDSGCRGIDSKHWNSYCTTTHTFVKALTMDGKQAAWRFIRIDTACVCVLSRKAGRRADYKDDDDK
notes: Baculovirus expression; also called feline NGF (processed form identical)

Tests used:
canine TrkA-Fc [1] = biological target: T1, canine TrkA-Fc (canine; human, UniProt A0A8I3P078 33-423); assay: SPR, TrkA-Fc captured on anti-human Fc chip, NGF analyte
T1 construct: extracellular domain; also called Trk-Fc; canine TrkA in a dimer format; not shown: human IgG1 Fc, UniProtKB P01857

canine p75-Fc = biological target: T2, canine p75-Fc (canine; human); assay: SPR, p75-Fc captured on anti-human Fc chip, NGF analyte
T2 construct: extracellular domain; also called canine p75 in a dimer format; not shown: human IgG1 Fc, UniProtKB P01857

[2] = biological target: B1; assay: SPR, antibody amine-coupled, NGF analyte
[3] = biological target: canine NGF with a strep-tag at the C-terminus (canine, UniProt A0A8I3PYI3 122-241); assay: cell-based or functional assay
[4] = biological target: T3, human NGF (R&D Systems, 256-GF-100/CF) (human, UniProt P01138 122-241); assay: multiplexed bead assay, flow cytometry
T3 construct: Conjugated to beads or fluorescently labelled; also called human NGF antigen

[5] = biological target: T4, NT-3 (R&D Systems, 267-N3-025/CF) (UniProt P20783 139-257); assay: multiplexed bead assay, flow cytometry
T4 sequence (looked up): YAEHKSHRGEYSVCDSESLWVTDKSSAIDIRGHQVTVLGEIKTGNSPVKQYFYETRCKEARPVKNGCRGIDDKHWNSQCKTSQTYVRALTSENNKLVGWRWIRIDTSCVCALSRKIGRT

[6] = biological target: T5, BDNF (R&D Systems, 248-BDB-050/CF) (UniProt P23560 129-247); assay: multiplexed bead assay, flow cytometry
T5 sequence (looked up): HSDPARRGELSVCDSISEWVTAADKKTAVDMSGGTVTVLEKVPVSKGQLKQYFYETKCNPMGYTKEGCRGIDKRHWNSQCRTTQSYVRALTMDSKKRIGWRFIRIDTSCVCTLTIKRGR

[7] = biological target: B1; assay: SPR; antibody amine-coupled to HC30M sensor chip, canine NGF-Flag as analyte
canine TrkA-Fc [8] = biological target: T1, canine TrkA-Fc; assay: SPR, receptor-Fc captured on anti-human Fc chip
[9] = biological target: B1; assay: SPR Biacore T200, antibody captured on protein A, NGF analyte
[10] = biological target: B1; assay: SPR Biacore T200, antibody captured on protein A, NGF analyte; fitted KD, one-to-one model

T1 sequence (A0A8I3P078 entry or part of it): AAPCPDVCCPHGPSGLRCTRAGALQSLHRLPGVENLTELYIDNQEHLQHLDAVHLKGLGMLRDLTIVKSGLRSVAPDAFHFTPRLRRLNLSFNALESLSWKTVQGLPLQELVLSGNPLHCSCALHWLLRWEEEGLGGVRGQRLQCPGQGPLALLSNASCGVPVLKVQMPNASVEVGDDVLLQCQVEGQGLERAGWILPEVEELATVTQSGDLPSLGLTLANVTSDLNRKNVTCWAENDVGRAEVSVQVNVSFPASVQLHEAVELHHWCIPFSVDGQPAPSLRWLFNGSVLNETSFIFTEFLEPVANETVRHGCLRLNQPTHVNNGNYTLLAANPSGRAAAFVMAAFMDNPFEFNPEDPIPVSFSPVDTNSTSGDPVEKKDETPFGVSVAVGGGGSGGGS
T3 sequence (P01138 122-241 limits assumed): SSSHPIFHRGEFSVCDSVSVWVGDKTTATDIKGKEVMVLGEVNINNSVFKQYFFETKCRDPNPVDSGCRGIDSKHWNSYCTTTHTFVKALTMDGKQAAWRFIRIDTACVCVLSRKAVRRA

B1
Kd (canine TrkA-Fc [1]): 0.013 nM and 0.0066 nM
koff (canine TrkA-Fc [1]): 0.00017 s⁻¹ and 0.00016 s⁻¹
kon (canine TrkA-Fc [1]): 1.3e+07 M⁻¹ s⁻¹ and 2.4e+07 M⁻¹ s⁻¹
Kd (canine p75-Fc): 3.7 nM and 2.7 nM

B2: rat antibody 2166 (antibody, V domains shown)
VH: QVQLKESGPGLVQPSQTLSLTCTVSGLSLTSNSVSWIRQPPGKGLEWMGVIWSNGGTDYNSAIESRLSINRDTSKSQVFLKMNSLQPEDTAMYFCASIYYYDADYLHWYFDFWGPGTMVTVSS
VL: DIQMTQSPASLSASLGETVSIECLASEGISNSLAWYQLKPGKSPQFLIYATSSLQDGVPSRFSGSGSGTQYSLKISGMQPEDEGVYYCQQGYKFPLTFGSGTKLKIK
Kd [2]: ≤ 0.0042 nM
koff [2]: ≤ 1e-05 s⁻¹
kon [2]: 2.38e+06 M⁻¹ s⁻¹
IC50 (read off the curve): % inhibition of canine NGF-driven TF-1 cell proliferation [3]: ~0.03 nM
fold over background (MFI normalized over isotype control) [4]: > 59 fold
binding result [5]: no binding
binding result [6]: no binding
Kd [7]: 0.042 nM

B3: canine 2166 chimeric antibody (antibody, V domains shown)
VH: QVQLKESGPGLVQPSQTLSLTCTVSGLSLTSNSVSWIRQPPGKGLEWMGVIWSNGGTDYNSAIESRLSINRDTSKSQVFLKMNSLQPEDTAMYFCASIYYYDADYLHWYFDFWGPGTMVTVSS
VL: DIQMTQSPASLSASLGETVSIECLASEGISNSLAWYQLKPGKSPQFLIYATSSLQDGVPSRFSGSGSGTQYSLKISGMQPEDEGVYYCQQGYKFPLTFGSGTKLKIKR
binding result (canine TrkA-Fc [8]): no binding (tested: 12.5 nM to 100 nM)
koff [9]: < 1e-05 s⁻¹
kon [9]: 1.2e+07 M⁻¹ s⁻¹
Kd [10]: ≤ 0.05 nM
